In patent publication US20140056918A1 (Novo Nordisk, published 2014):

T1: Human OSCAR-S1a (naturally occurring soluble isoform) (human, UniProt Q8IYS5 19-282)
T1 construct: Recombinant soluble isoform used as SPR analyte; also called OSCAR 1Sa
T1 sequence: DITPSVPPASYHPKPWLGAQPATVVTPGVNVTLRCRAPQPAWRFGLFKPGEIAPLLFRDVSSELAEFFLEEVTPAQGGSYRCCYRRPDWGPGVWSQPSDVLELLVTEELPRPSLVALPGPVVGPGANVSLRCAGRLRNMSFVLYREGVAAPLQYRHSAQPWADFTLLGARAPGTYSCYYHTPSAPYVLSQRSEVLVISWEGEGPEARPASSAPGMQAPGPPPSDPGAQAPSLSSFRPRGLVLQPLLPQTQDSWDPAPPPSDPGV

T2: Human OSCAR (osteoclast-associated receptor), full length, on cells (human)
T2 construct: The signal peptide limits cannot be read from the text; also called hOSCAR; HEK-OSCAR cells
T2 chain: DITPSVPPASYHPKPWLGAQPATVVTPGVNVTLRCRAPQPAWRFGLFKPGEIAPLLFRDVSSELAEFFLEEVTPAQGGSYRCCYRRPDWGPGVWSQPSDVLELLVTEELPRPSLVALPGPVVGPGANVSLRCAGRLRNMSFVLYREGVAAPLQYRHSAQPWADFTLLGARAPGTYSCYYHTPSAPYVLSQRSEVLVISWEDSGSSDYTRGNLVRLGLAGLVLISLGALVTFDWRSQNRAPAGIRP

B1: 4F3B (antibody, V domains shown)
VH: QVQLQQSGAELAKPGASVKMSCKASGFTFTSYWMHWVKQRPGQGLEWIGYINPSTDYTEYNQKFKDKATLTADKSSSTAYMQLSSLTSEDSAVYYCARRSPFAMDYWGQGTSVTVSS
VL: DIVMTQSPSSLTVTAGEKVTMSCKSSQSLLNSGNQKNYLTWYQQKPGQPPKVLIYWASTRESGVPDRFTGSGSGTDFTLTISSVQAEDLAVYYCQNDYSYPLTFGTGTKLELKR
notes: Mouse anti-human OSCAR mAb (its isotype control is mIgG1); The heavy chain entry covers only VH-CH1 and the start of the hinge; It was fluorescein-labelled in the peptide array and Alexa Fluor 647-labelled in the flow binning; also called mAb 4F3B
B2: 13F5A5 (antibody, V domains shown)
VH: EVQLVQSGAEVKKPGESLKISCKGSGYSFTSYWIVWVRQMPGKGLEWMGSIYPGDSDARYSPSFQGQVTISADKSISTAYLQWSSLKASDTAMYYCARQKITMVRGVIITPLDGMDVWGQGTTVTVSS
VL: not shown
notes: Fully human anti-OSCAR mAb from HuMab mice; also called 13F5A5 (Hu)
B3: Human OSCAR-ECD (recombinant extracellular domain of human OSCAR) (receptor)
chain: DITPSVPPASYHPKPWLGAQPATVVTPGVNVTLRCRAPQPAWRFGLFKPGEIAPLLFRDVSSELAEFFLEEVTPAQGGSYRCCYRRPDWGPGVWSQPSDVLELLVTEELPRPSLVALPGPVVGPGANVSLRCAGRLRNMSFVLYREGVAAPLQYRHSAQPWADFTLLGARAPGTYSCYYHTPSAPYVLSQRSEVLVISWEDSGSSDYTR
notes: also called OSACAR-ECD
B4: 3F7A9 (antibody, V domains shown)
VH: EIQLQQSGPELVKPGASVKVSCKASGYVFTSYNMYWVKQSHGKSLEWIGYIDPYNGGTRYNQKFKGKATLTVDKSSSTAYMHLNSLTSEDSAVYYCARLDYYGNFYWGQGTTLTVSS
VL: DIKMTQSPSSMYASLGERVTITCKASQDINSFLSWLQQKPGKSPKTLIYRANRLVDGVPSRFSGSGSGQDYSLTISSLEYEDMGIYYCLQYDDFPYTFGGGTKLEIKR
notes: Mouse anti-human OSCAR mAb (its isotype control is mIgG1); The heavy chain entry covers only VH-CH1 and the start of the hinge; also called 3F7A9-1

Assays:
[1] = target: B3; assay: SPR competition, 50 nM OSCAR-ECD premixed with mAb, over ColI immobilised at ca 150 RU
Protocol: (§1) The experiment was performed using a Biacore T 100 instrument (GE Healthcare). Human ColI (Sigma, # C5483) was diluted with 10 mM NaOAc, pH 4.5 to 10 μg/ml and immobilized on a Biacore CM3 sensor chip (GE Healthcare) using amine coupling chemistry (GE Healthcare). Immobilization was performed according to the standard procedure, but at 4° C. in order to prevent aggregation of ColI, with immobilized levels of ca 150 RU on flow cell (FC) 2 and ca 300 RU on FC 4. A blank immobilization was performed on FC 1 & 3, which were used as reference cells. HBS-EP buffer (10 mM HEPES, 150 mM NaCl, 3 mM EDTA, 0.005% Polysorbat P20, pH7.4) was used as running buffer for the immobilization. Buffer containing HBS-EP/+0.1% BSA was used for the competition assay.
(§2) The competition experiment was performed at 4° C. at a flow rate of 50 μl/min. […] OSCAR was mixed with various concentrations of anti-OSCAR antibodies ranging from 0-5 μg/ml prior to injection. Binding curves were measured for 240 s followed by 200 s of dissociation. The chip surface was regenerated for 2×20 s with 10 mM glycine, pH 2.0 between assays. All assays were performed in duplicates.
(§3) Human ColI was immobilized to the surface of a Biacore sensor chip by amine coupling.

[2] = target: B3; assay: SPR competition, 50 nM OSCAR-ECD premixed with mAb, over immobilised collagen II; parameters: unit not given here
Protocol: (§4) The experiment was performed using a Biacore T 100 instrument (GE Healthcare). Human collagen 1 (Sigma, # C5483) and human collagen 2 (Millipore #CC052) were diluted with 10 mM NaOAc, pH 4.5 and immobilized on a Biacore CM3 sensor chip (GE Healthcare) using amine coupling chemistry (GE Healthcare). Immobilization was performed according to the standard procedure, but at 5° C. in order to prevent aggregation collagens, with immobilized levels of ca 250 RU on flow cells (FC) 2 and 4. A blank immobilization was performed on FC 1 & 3, which were used as reference cells. HBS-EP buffer (10 mM HEPES, 150 mM NaCl, 3 mM EDTA, 0.05% Polysorbat P20, pH7.4) was used as running buffer for the immobilization. Buffer containing HBS-EP/+0.1% BSA was used for the competition assay. The competition experiment was performed at 5° C. at a flow rate of 50 μl/min. […] OSCAR was mixed with various concentrations of anti-OSCAR antibodies ranging from 0-10 μg/ml prior to injection. Binding curves were measured for 360 s followed by 240 s of dissociation. The chip surface was regenerated for 2×20 s with 10 mM glycine, pH 2.0 between assays.
(§5) Human collagen I and II were immobilized to the surface of a Biacore sensor chip by amine coupling. […] It was hypothesized that an antibody inhibiting binding of OSCAR to collagen would lead to a concentration-dependent loss of signal, whereas a non-inhibiting antibody would enhance the signal due to the increased mass of the OSCAR-antibody complex.

[3] = target: T1, Human OSCAR-S1a (naturally occurring …); assay: SPR competition, 50 nM OSCAR-S1a premixed with mAb, over ColI immobilised at ca 300 RU
Protocol: as §1, §2, §3

[4] = target: T2, Human OSCAR (osteoclast-associated …); assay: flow cytometry on primary human monocytes, donor #1
Protocol: (§6) Cell number and viability were determined using a Cedex cell counter. The cells were diluted in washing buffer (1×PBS (—Ca²⁺/—Mg²⁺)+5% FBS+0.1% Na-azide) to […]. In the case of monocytes, the cells were further blocked by adding 10 μl of a hFcR blocker (Miltenyi, #130-059-901) and incubated for 10 minutes at 4° C. 50 μl of cells (50.000 cells/well) were seeded into 96 well round-bottomed microtiter plates. Hybridoma supernatants or purified antibodies (in serial dilutions) were added to the cells at 50 μl/well. The isotype-matched purified irrelevant human mAb or mouse mAb served as negative controls (mouse IgG1, BD, #553452; mouse IgG2a, BD, #557353; mouse IgG2b, BD, #557352). […] Cells were washed in PBS, re-suspended in fixation buffer (1×PBS (—Ca²⁺/—Mg²⁺), pH7.2+1% formalin (B&B, #LAB96751.0500) and analysed by FACS flow cytometer. EC₅₀ values were calculated using a GraphPad Prism 5 software.

[5] = target: B3; assay: SPR (Biacore T100), mAb coupled or captured on chip, OSCAR-ECD injected, 1:1 fit
Protocol: The kinetic parameters (kₐ, kd and KD) for the interaction were calculated using a 1:1 interaction Langmuir fitting model.

[6] = target: T2, Human OSCAR (osteoclast-associated …); assay: cell-based or functional assay
[7] = target: T2, Human OSCAR (osteoclast-associated …); assay: flow cytometry on primary human monocytes, donor #2
Protocol: as §6

[8] = target: T1, Human OSCAR-S1a (naturally occurring …); assay: SPR competition, 50 nM OSCAR-S1a premixed with mAb, over ColI immobilised at ca 150 RU
Protocol: as §1, §2, §3

[9] = target: B3; assay: SPR competition, 50 nM OSCAR-ECD premixed with mAb, over immobilised collagen I
Protocol: as §4, §5

[10] = target: B3; assay: SPR competition, 50 nM OSCAR-ECD premixed with mAb, over ColI immobilised at ca 300 RU
Protocol: as §1, §2, §3

[11] = target: T3, Human collagen I (Sigma, #C5483) (human, UniProt P02452 162-1218; P08123 80-1119); assay: SPR
T3 construct: Bought collagen preparation, immobilised by amine coupling or coated on plates; also called ColI; colI
T3 sequence (P02452 162-1218, chain 1 of 2): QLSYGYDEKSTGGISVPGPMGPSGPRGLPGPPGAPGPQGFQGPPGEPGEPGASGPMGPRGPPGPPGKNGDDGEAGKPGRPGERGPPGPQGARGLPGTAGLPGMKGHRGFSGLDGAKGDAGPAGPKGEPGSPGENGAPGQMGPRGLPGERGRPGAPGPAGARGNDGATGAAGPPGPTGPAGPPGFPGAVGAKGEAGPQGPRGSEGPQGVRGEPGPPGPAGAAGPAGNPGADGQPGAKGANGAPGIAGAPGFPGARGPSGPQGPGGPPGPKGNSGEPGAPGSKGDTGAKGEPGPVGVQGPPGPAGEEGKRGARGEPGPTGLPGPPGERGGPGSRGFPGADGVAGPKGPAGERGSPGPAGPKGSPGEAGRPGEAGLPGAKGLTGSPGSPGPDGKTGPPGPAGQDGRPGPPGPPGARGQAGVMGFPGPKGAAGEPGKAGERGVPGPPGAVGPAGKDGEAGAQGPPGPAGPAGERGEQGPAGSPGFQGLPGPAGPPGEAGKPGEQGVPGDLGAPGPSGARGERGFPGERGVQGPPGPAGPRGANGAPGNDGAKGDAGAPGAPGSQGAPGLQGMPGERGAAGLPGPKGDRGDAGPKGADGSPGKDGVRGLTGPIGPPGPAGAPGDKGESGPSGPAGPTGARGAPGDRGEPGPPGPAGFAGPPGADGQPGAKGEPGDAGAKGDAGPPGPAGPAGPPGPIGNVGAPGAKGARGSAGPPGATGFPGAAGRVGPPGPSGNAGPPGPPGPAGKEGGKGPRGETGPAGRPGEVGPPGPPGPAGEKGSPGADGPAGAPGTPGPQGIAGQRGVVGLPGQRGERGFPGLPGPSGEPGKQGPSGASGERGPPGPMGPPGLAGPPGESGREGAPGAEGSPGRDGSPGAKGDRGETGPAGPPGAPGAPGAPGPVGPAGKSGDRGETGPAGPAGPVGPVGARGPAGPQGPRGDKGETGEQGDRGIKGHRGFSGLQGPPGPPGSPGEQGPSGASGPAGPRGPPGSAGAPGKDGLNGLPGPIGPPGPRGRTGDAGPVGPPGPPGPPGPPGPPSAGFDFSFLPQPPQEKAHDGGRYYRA
T3 sequence (P08123 80-1119, chain 2 of 2): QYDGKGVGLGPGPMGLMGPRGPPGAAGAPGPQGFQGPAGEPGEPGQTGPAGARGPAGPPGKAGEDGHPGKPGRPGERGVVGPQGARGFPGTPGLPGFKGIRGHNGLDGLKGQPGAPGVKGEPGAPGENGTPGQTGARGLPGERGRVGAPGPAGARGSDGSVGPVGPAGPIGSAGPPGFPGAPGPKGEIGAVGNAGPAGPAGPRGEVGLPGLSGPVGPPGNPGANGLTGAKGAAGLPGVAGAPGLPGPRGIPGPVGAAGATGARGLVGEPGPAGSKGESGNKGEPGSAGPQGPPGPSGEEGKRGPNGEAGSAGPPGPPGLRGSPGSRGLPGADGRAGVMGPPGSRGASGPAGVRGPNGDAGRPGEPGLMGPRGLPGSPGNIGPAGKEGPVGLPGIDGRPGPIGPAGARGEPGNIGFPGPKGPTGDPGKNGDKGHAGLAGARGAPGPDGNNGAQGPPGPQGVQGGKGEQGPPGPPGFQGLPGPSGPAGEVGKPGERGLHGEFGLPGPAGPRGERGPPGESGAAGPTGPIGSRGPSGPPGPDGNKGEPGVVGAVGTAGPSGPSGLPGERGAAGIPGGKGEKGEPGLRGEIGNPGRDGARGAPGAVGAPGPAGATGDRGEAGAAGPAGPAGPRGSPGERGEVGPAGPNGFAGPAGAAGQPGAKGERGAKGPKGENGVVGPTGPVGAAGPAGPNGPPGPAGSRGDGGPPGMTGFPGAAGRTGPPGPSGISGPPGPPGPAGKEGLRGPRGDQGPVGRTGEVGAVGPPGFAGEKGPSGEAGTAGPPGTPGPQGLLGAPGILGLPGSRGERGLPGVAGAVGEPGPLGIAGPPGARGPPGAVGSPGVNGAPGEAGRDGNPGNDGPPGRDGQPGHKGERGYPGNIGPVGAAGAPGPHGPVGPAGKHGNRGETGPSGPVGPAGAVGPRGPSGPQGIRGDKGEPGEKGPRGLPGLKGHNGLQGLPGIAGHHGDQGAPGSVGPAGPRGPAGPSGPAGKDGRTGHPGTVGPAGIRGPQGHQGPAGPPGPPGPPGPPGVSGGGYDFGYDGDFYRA

Row | Binding [RU] of OSCAR to ColI with 5 µg mAb [1] [RU] | binding of OSCAR-ECD to collagen II with 10 µg/mL mAb [2] | Binding [RU] of OSCAR to ColI with 5 µg mAb [3] [RU] | EC50 [4] [pM] | Kd [5] [pM] | IC50 (IL-8), ColI-induced IL-8 release from moDC, Donor 1 [6] [pM] | IC50 (IL-8), ColI-induced IL-8 release from moDC, Donor 3 [6] [pM] | IC50 (IL-8), ColI-induced IL-8 release from moDC, Donor 4 [6] [pM] | IC50 (IL-8), ColI-induced IL-8 release from moDC, Donor 5 [6] [pM] | IC50 (IL-8), ColI-induced IL-8 release from moDC, Donor 6 [6] [pM] | EC50 [7] [pM] | Binding [RU] of OSCAR to ColI with 5 µg mAb [8] [RU] | binding of OSCAR-ECD to collagen I with 10 µg/mL mAb [9] | Binding [RU] of OSCAR to ColI with 5 µg mAb [10] [RU] | Kd [11] [pM] | IC50 (IL-8), ColI-induced IL-8 release from moDC, Donor 2 [6] [pM] | Binder
1 | 0.9 | 6.7 | 1.4 | 660 | 1700 | 190 | 400 | 120 | 430 | 240 | 320 | -0.3 | 0.7 | 3.6 |  |  | B1
2 | 1.4 | 1.3 | 2 | 4020 | 700 | 2000 |  | < 10 | 230 | 60 | 2180 | -0.2 | -1.4 | 5.1 |  |  | B2
3 |  |  |  |  |  |  |  |  |  |  |  |  |  |  | 255000 |  | B3
4 | 82.5 | 246 | 92.6 | 1790 | 9100 | 160 | 410 | 60 | 50 | 100 | 140 | 58.9 | 132 | 130 |  | 60 | B4
